Reference: the DeepSol protein solubility set

Assay: soluble on expression in E. coli; label from the status in PepcDB or PDB records

Soluble on expression in E. coli, not soluble:
MGSDKIHHHHHHMTVVRQTAAEQATATGRRRASFHTLTVAEVRRLTDDAIEVTFGVPAELAGQYDYLPGQYVALRTTMPDENGQPHEVRRSYSICAEPRSFADGSSEIRVAIKKDLGGLFSTWANAELKPGDQLDVMSPMGAFVSKHGRDGKAVEQNVMNSMNHPEDLVGEPGSFVAIAAGSGITPVIAIARTLLAANPETRFDLIYANKAAMDVMFLEELADLKDKYPSRLALHHVLSREQRIAPLLSGRIDAEKLQALLGTAIHADDVDEWFLCGPFELVQLCRDTLAARGVQPEHVRFELFTSGKPDRPEGNIGRPVIADESKDTYKITFKLDGLEGKVESPTHARESLLNAALRVRPDVPFACAGGVCGTCRAKVVTGAVTMDENYALEQDELDKGYVLTCQSHPTTPEVTVDFDV
MGSDKIHHHHHHMTYINAQGRLKGCKPIAVIDIGSNSVRLVIYEGLVRSPTVLFNEKILCGLGQGVAKTGLLEENSMNMALRTLKRFRALCLQIGADEIYILATAAAREAKNGLAFIQNAENILQNKIYLLSGSEEAVYSAYGVISTFYQPKGISGDLGGGSLELIDIDNSEVGEGITLPLGGLRLQYMSNNDIAVAAKIAQEQFGKSAVVHKSMARCFYAVGGTWRNLAKLHMATKHYRLPVMHGYEVDAVEMEDFLRFVVNGSIENMKGISAVSKNRRQLLSYGAIILIELIRCVGFEKIIFSGAGVREGFLYSRLPQEVRVSDPLIAACTEMAILRARSPKQAEELIDFTTNAFEVFGILETENECRYRKAACLLADIGWRIHPDYRGNEAANQIALGSYPGISHEGRAYAALAVFFRNTGSLIGEESLPIFQLASKDVIEKARILGEIMRIAHLFSASTTGVLPHLSWHKKIDHVVLHIPARYADLLGERPLSRLKKLSKIIELPLAFEIF
MGSDKIHHHHHHMVALTDPDLLFPPEAHSRSLARDLYAGIKDLPIVSPHGHTDPRWYALNEPFPDPAQLLIVPDHYIFRMLFSQGVRLEDLGVASLDGAPVETDGRTIWRRFAEHYYLFRGTPTRLWFDHVLAHLFGIEEPLDATTADRHYDTIATVLQWENFRPRALFERFNIEVIATTEGALDDLEWHKMIRDSGWEGRVVTAYRPDAVVDPDFEGFSANLDRLGEITGCDTGSWAGYLDAHRQRRAFFKSFGATSSDHGHPTAETANLSDAAAQELFNRIRRGSQDERERKLFRAQMLTEMAKMSRDDGLVLQIHPGSWRNHSPSVFQRFGRDKGFDIPTRTDYVTALKPLLDCVGLERDLTVILFTLDESSYARELAPLAGVYPALKLGPAWWFHDSPEGMRRFREMTTETAGFYNTVGFNDDTRAFPSIPARHDVARRVDCAFLARLVAEHRLREDEAHELARELAHTLAKKAYRL
MGSDKIHHHHHHMVATLAEQIKAEAIALGFDKVGIASVDPPDTEALAALDRWLAQGYQAEMDWMASDRRRDVRNLLPNAQSVICVALNYYSGDHPDPSPEVGKIARYAWGRDYHRVVEKRLKALARWLQTQQPDCECRWYVDSGPIADKVWAQRAGLGWIAKNSNVISREFGSWIFLGELVTTLALPADRPHTAHCGSCSRCLEACPTQAIVEPYVVDANRCIAYHTIENRAADLPAAIAQNLQGWVAGCDICQEVCPWNQRFAQITTLPDLQPRSELLAPALAELATLSEEAWDQQFQGSALRRIKPAMWRRNSRANLRQQSEGNRLS
MGSDKIHHHHHHMVATPNSSYISPEDYLKGEETSPIKHEYRQGQVYAMAGASNAHVIISLNIASMLRNHLRGSGCQAYISDTKVHIESINVYYYPDVTVSCDQRDRAFNNFLRYPCLIVEVLSPTTEAFDRGDKFADYRQMESLQEYVLISQTRLNVECFRRNPESQWVLYPYGKEDIIHLASVDFRCAVADFYEDVTFESL
MGSDKIHHHHHHMVDSLQKPELEELRPGIKAPAKETILTPRFYTTDFEAMAKMDLSPNEDELRAILEEFRADYNRKHFVRTPEFDGSAADMDPETKKVFVEFLEQSCTSEFSGFLLYKELSRRIKNRNPLLAECFELMARDEARHAGFLNKSMSDFDLQLDLGFLTANKKYTYFKPAYIFYATYLSEKIGYWRYITIFRHLEQHPEYRIYPIFKFFENWCQDENRHGDFFDALMKAQPSTVRGFVAKLWCRFFLLAVFATMYIRDVQRKEFYEALGLDAREYDRHVIAKTNETSARVFPVVLDVDHPKFYDRLETCIANNNQLAAIEATSAPKPVKVLRKLPYYLSNGLQLLKLYLVKPLESDVYQPAVR
MGSDKIHHHHHHMVILLNPNILESSFIPERLRARDSEISKIMEVVIKPALNNITTNLIIYGDSGTGKTVTMRFLAREVRNPKIFYINAISYRSVKNVLVELLSHEGVIISERASYANIYTRLEKAIEKYDKTVILVIDEAANILRTDEEGLYYLFRSKDSFDVNISAIFIAMDDPALLLNQRIKRSYGLFNELKFKRYSKDEILEIVRDRARMSLNTTSYDDTIIDYIAEISSEFGSARVAIDILAKAAHIAEYRRSENISYDDVRAAKSMISPYVTESKLASLDKYELAALLAICGCLSHSVSTDIACVSEQLKILREQYSLDPEMDIYEILRKLEGLGIINSYVESSGKSSGVRKKISIHDVPVSVLAEKIGNLLNGMA
MGSDKIHHHHHHMVKLKDGFTGERALVLPRIIVDKMEEDPLTSMLHITDIGYYPKAKHHFRERKEPINQYVFIYCIDGAGSYRIGDQEYTVSANQYFILPAGVPHSYASNKSTPWTIYWIHFKGILAPFYAKDANRPMDIQSEQHSRISTRINLFEEIFNTLKNGYSNENLRYAFSMFHFYLGTLRYVQQYRNAGTNEAEDEGIVNVAIHYMKENMEKHLSLEEISTQIGYSPSHFSMLFKKQTGHSPLTYFNLLKMQQACLLLDTTDMKINQICYKIGIEDTYYFSRLFSKIMGMSPREYRKSKKG
MGSDKIHHHHHHMVKLPPLSLYIHIPWCVQKCPYCDFNSHALKGEVPHDDYVQHLLNDLDNDVAYAQGREVKTIFIGGGTPSLLSGPAMQTLLDGVRARLPLAADAEITMEANPGTVEADRFVDYQRAGVNRISIGVQSFSEEKLKRLGRIHGPQEAKRAAKLASGLGLRSFNLDLMHGLPDQSLEEALGDLRQAIELNPPHLSWYQLTIEPNTLFGSRPPVLPDDDALWDIFEQGHQLLTAAGYQQYETSAYAKPGYQCQHNLNYWRFGDYIGIGCGAHGKVTFPDGRILRTTKTRHPRGFMQGRYLESQRDVEATDKPFEFFMNRFRLLEAAPRVEFIAYTGLCEDVIRPQLDEAIAQGYLTECADYWQITEHGKLFLNSLLELFLAE
MGSDKIHHHHHHMVKLYKEIINLIDNHQATMVEQLHQFCEINSGTTNLTGLAIMAETLCSAFKPIADTTELITLPPLSVIDMTGNTVMQSCGDVLFISKRPHLKRRILLSGHMDTVYSASNPFQKLSYLDANQINGPGVADMKGGLIVILHALAAFENTRFAEDMGWDVLINSDEEIGSPTSGSLFNKLAHRYQAALVYEPAMTPNGTLAKNRKGSGKLTLVATGRAAHAGRAFDEGRNAICYLAEAITAVHALNGQKNGVTINVGKIAGGEALNVVPDKAVAQLDIRISLPEDEIWVRNELNKIIKQLERPDYSLNVHGTFGRPVKRICAGTERLFHRIQKIGEALGLTIDWKDSGGCCDGNNLAHYGLPVLDTLGVRGGNIHSSDEYILLDSLSERAALSALLLIDLAQGGLEDLIK
MGSDKIHHHHHHMVKMRALLSGYYGKGNGGDEALLATLLQMLPSHVTPVVLSGNPEETRDRYNVETYDRMAPLAVLQALRSSDALIWGGGSIIQDVTSTISPFYYGGMMALAQKMGLKTVAWAQGIGPLVRPQTRWLARQTFGNCTKVSVRDRASAALLSDWQIPCIIAPDPVWALESKPVPGLWDLPAPRVAVTLRSHPQLTETRLANLTRALVDFQKATQAFILLLPFQKSEDLSIAEAIQPHLKDVSQILCLEDPQLLKGVFRGVEMAIGMRLHSLIMAAAEGCRCFALSYDPKVNRLMEDLEMPGWDLASLPNDPNLISLTWMEHYANGDPLSPDQIQSLVDRALIHRELLSQAFI
MGSDKIHHHHHHMVLMPSPETIFIESGPLSARFRSDWGGRMTHLVHAEMGDILAPTQADVFEPYNWPRAGAYPLVPYHNRVYGASFVESGKTHRLLPHPALTPDAMHGPAHRRPWHVASAAEDRVTLQLNYEADDEWPFSFVAEQHFRLEPDRLIVELSIINSSDASAPVSLGWHPYLAVPLSSHAETDARLEYPLDALNVPTGNEAHPRSSRSIPAATGYTLHFRYWSTATVELDKGTLLLEADPIFEYLAVHRMEKYLCLEPVSMAAGALCLPETERESRGLRTILPEGRLSGRISLSIRG
MGSDKIHHHHHHMVLRNSEGTHVHAADADQRPRAICLSTMTTNMQIVTLFRDAPDFAEPGNFEAHLVRLWSVIEALSGKDDRLGQWYLTGSTEEEALLYPAFEASGAPSTALLAVLKTKYQGKRNRAKVVGLWNGHNNPTDGATLKLSIDTGPLPSEVAIDPPKPRDAETGLAPLAAIQGIVSLLVATYAPAVVSVAPMDYFEKKVFDDKPGVGWMLYLPKVITQQQVPEARALIPVPAKGKQTGTIIVSVTDAPFSVDNPEHVAIANRIEIRLVDQDLLPAYVDI
MGSDKIHHHHHHMVLRYTALGDSLTTGRGSGLFSPGFVQRFGDMMEADLKTRTAINIFARSGLNTEEILGLLSYPYVQKCIRDADMITITGCGNDLIDSVLAYQTSKDETIFSRVSAHCHENFEKMIAKVAEIKGENPSPYAIRVFNLYNPFPEIDIAGKWITSFNSHLETLASAPHVKIADAYSIFKGKEQEYLSFDGVHPNSKGYQAMAEAVHKLGYKELSVS
MGSDKIHHHHHHMVQDRKSTVVITGASSGVGLYAAKALAERGWYVVMACRDVAKAQLAAQSVGIPHQGSYTIMHIDLGSLDSVRQFVKNFRASGHSLDALVCNAAIYMPLIKEPLRSPEGYELTVTTNHLGHFLLCNLMLEDLKKSSSEPRLVILGTVTHNPDELGGKIPPRPDLGDLQGFAEGFKEPISMIDGKKFEPVKAYKDSKVCNVLTMRELHQRYHESTGIVFNSLYPGCVAETPLFRNHYPLFQKIFPLFQKYITKGYVSQELAGERVAAVVADPEYNQSGVYWSWGNRQKEDGKSFVQKVSPQARDDDKGDRLWQLSAKLVGLA
MGSDKIHHHHHHMVQVDNTFYDGSAYDPETVRFFDVAQEGAQVRQIGGLVAQGALSAFEGLRPRSVVVMLDGQIHRSCVRLVETLHSPMRQPLVITSTLPHYIGALDVLIVITDNGADEKALKALITASQRGVATLLIGPSSGPLIDESPQDTFVLPTLPTAAGLSPARIVASISTLLDLLEADPSIISDRLEHLADCIDEEVESLSPERDELVNPGRKLRAYVDHARIVHTGRTDVGLAIANVIAPIWTRRGLVSAVLDFPELMESLPELRGPEPITDDIFHDPFIDDEPGVVPFRAVVWAEEEPGIPDAMAQSCDGPSKGALTQALRLLVRGQSATTYSIEEKDL
MGSDKIHHHHHHMVRPRIKLTEHLSTEEIEQSYRRCEDAQEKTRWLVIKLLNQQPQLSAQKVAEIVGFSGDWVRKIVRRYNKLGANGIINQQKLKPGGKKLALTNEQQQWLRQRLASPPEDGGLWSAPKVGELIRVQFGITLHVTTAWDYLKRLGFSLQQPRPLHTEAATFVQRQMFKTELTEFVRLLRFLHPHKSVEVWAEDEARLGLKPIVRRVWTPVGHRPNAVHRTRYQWLYTYGFVHPATGESFFLILPRVNIAVMQMALDAFAAEVNPHHHKIIVLLVDQAGWHTSKQLMLPAGIILFPLPAYTPQLQPTECVWSLLREAVANQMFSTLDELETVLISRCQWLMSHPQIVHGKVGFDWICQI
